Experimental data: FireProtDB (doi:10.1016/j.jmb.2009.07.074)

Conditions: Rhodopseudomonas palustris (strain ATCC BAA-98 / CGA009); pH 6.5; 25 °C; GdnHCl; CD; MES 20 mM; NaCl 40 mM; whole UniProt chain shown

B1: Cytochrome c' wild type, P00149 (protein)
chain: MKLRIATIAGLVVLGSGFAVAQTDVIAQRKAILKQMGEATKPIAAMLKGEAKFDQAVVQKSLAAIADDSKKLPALFPADSKTGGDTAALPKIWEDKAKFDDLFAKLAAAATAAQGTIKDEASLKANIGGVLGNCKSCHDDFRAKKS
denaturant m value: 5.12 kcal/mol/M
denaturant midpoint (higher = more stable): 1.71 M
unfolding free energy: 36.7 kJ/mol
